Test results taken from patent publication US7635583B2, “Protein crystal comprising the processivity clamp factor of DNA polymerase and a ligand, and its uses” (Centre National de la Recherche Scientifique, priority 2003, dated 2009).

Legend:
[1] = target: β clamp-Pol IV DNA polymerase interaction (Escherichia coli, UniProt P0A988); conditions: Pol IV 1.5 nM; for effect on β-dependent Pol IV activity: peptide 1, 10, 25 μM
Experimental: (§1) FIG. 3A represents the migration pattern of an electrophoresis gel. β free (lanes 1-4 and 9-12) or β loaded (lanes 5-8 and 13-16) labelled primer/template hybrids are incubated with increasing amounts of control peptide (CLIP) (lanes 1-8) or P16 peptide (lanes 9-16). Concentrations of peptides are as follows: 0 μM, lanes 1, 5, 9 and 13; 1 μM, lanes 2, 6, 10 and 14; 10 μM, lanes 3, 7, 11 and 15; 25 μM, lanes 4, 8, 12 and 16. This mixture is then submitted to the enzymatic activity of Pol IV (1.5 nM) in the presence of each four dNTPs for 1 minute at room temperature. Beside the overall increase in DNA synthesis activity, the β-dependent activity of the polymerase is characterised by the apparition of synthesis products longer than 12 nucleotides (β dependent synthesis), β independent synthesis is characterised by products shorter than 12 nucleotides. […] FIG. 3B represents the quantitative analysis of the relative amounts of each β-independent (incorporation of 1 up to 12 nucleotides) and β-dependent (12 and more nucleotides incorporation) activities observed in lanes 5-8 and 13-16. Black and white rectangles represent the ratio of β-dependent to β-independent polymerase activities (vertical axis) in the presence of specified amounts of CLIP and P16 peptides (horizontal axis), respectively. Decrease in this ratio value actually indicates a specific inhibition of the β-dependent polymerase activity.
(§2) Briefly, P16 peptide and a control peptide (CLIP) were diluted in 20 mM NaHCO3 at concentrations of 250, 100 and 10 pmol/μl. 5′ end radiolabelling, purification and annealing of synthetic primers were performed as previously described (Wagner et al., 1999).
All replication experiments (10 μl final volume) were carried out in buffer E (40 mM HEPES pH 7.5, 80 mM potassium glutamate, 160 μg/ml BSA, 16% glycerol, 0.016% NP40, 8 mM DTT). The 30/90 nucleotide hybrid was first incubated with single strand binding proteins (SSB; Sigma; 90 nM final concentration) in the presence of ATP (200 μM) and MgCl2 (7.5 mM) at 37° C. for 10 min. […]

Pol IV DNA polymerase = target: T1, Pol IV DNA polymerase (Escherichia coli, UniProt Q47155); assay: intrinsic (β-independent) activity of Pol IV, primer extension on β free primer/template; format: biochemical; conditions: peptide 1, 10, 25 μM, Pol IV 1.5 nM
T1 sequence (Q47155 1-351): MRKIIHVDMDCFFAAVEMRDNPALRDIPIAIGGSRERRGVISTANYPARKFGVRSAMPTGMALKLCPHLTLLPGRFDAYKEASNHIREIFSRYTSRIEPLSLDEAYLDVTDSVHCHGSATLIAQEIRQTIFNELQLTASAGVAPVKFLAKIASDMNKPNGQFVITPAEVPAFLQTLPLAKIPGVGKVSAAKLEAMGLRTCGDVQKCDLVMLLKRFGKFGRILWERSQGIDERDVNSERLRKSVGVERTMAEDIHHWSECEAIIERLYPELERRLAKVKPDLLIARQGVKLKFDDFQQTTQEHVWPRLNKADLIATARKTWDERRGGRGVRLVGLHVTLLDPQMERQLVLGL
Experimental: as §1, with “Decrease in this ratio value actually indicates a specific inhibition of the β-dependent polymerase activity.” left out

[2] = target: β clamp-α subunit of DNA Polymerase III interaction (Escherichia coli, UniProt P0A988); conditions: peptide 1, 10, 25 μM; α subunit 6 nM
Sequence of β clamp-α subunit of DNA Polymerase III interaction (P0A988 whole entry): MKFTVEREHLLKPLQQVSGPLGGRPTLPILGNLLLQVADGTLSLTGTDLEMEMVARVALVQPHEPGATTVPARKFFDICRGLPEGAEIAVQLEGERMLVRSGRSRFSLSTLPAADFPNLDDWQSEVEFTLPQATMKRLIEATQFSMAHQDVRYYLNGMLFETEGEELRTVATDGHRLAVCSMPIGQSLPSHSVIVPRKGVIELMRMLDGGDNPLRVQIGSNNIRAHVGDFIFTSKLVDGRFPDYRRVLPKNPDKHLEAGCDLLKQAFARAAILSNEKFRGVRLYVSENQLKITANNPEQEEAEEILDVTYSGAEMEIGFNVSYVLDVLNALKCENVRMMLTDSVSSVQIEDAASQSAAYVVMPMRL
Experimental: as §2
All replication experiments (10 μl final volume) were carried out in buffer E (40 mM HEPES pH 7.5, 80 mM potassium glutamate, 160 μg/ml BSA, 16% glycerol, 0.016% NP40, 8 mM DTT). The 30/90 nucleotide hybrid was first incubated with single strand binding proteins (SSB; Sigma; 90 nM final concentration) in the presence of ATP (200 μM) and MgCl2 (7.5 mM) at 37° C. for 10 min. When specified, the γ complex (1 nM final concentration) (gift from Dr. C. S. McHenry, Denver, USA), and the β clamp (5 nM as dimer final concentration) were added at that stage, and incubation was carried out at 37° C. for 10 min. Then, 7 μl of the mixture was added to 1 μl of either 20 mM NaHCO3 or 1 μl of peptide solution (1, 10 or 25 μM final concentration), incubated 20 min. at room temperature and farther 2 hours at 4° C.

Sequence of β clamp-Pol IV DNA polymerase interaction (P0A988 whole entry): as above

Row | Sequence | effect on β-dependent Pol IV activity [1] | effect on intrinsic activity of Pol IV (distributive incorporation of one to up to 12 nucleotides) (Pol IV DNA polymerase) | decrease of β-dependent Pol IV activity (factor) ([1]; highest P16 concentration tested, 25 μM, β clamp 5 nM) | effect on α subunit β-dependent activity [2]
1 | RPVKVTPNGAEDESAEAFPLEF (Control peptide) [CLIP, 22-mer control peptide, reference compound] | no effect | neither P16 nor CLIP peptides do affect | – | –
2 | VTLLDPQMERQLVLGL (listed as Escherichia coli) [P16, 16-mer peptide representing the 16 last residues of Pol IV DNA polymerase of E. coli] | inhibits the β-dependent activity of Pol IV | neither P16 nor CLIP peptides do affect | around 30 | dose dependent inhibition
